# Data as given in paper PMC6749138.
# Columns and labels:
# [1] = molecular target: HA-tagged HIV-1 Nef F68A (HIV-1 (NL4-3)) (UniProt P03406)
# [2] = molecular target: HA-tagged HIV-1 Nef E63A (HIV-1 (NL4-3)) (UniProt P03406)
# [3] = molecular target: HA-tagged HIV-1 Nef E63A/F68A double mutant (HIV-1 (NL4-3)) (UniProt P03406)
substance,measurement,setting,value
adaptor protein 1 (AP-1) complex (from UniProt Q9BXS5 1-423),ratio of the GFP+ MHC-I- population of HEK293T cells transfected with Nef (flow cytometry; wild type 34.9%),[1],23.2%
same,ratio of the GFP+ MHC-I- population of HEK293T cells transfected with Nef (flow cytometry; wild type 34.9%),[2],25.7%
same,ratio of the GFP+ MHC-I- population of HEK293T cells transfected with Nef (flow cytometry; wild type 34.9%),[3],19.2%
